Source: patent publication US20180142032A1 (Sanofi, published 2018)

T1: LAMP1::histag (human, UniProt P11279 29-382)
T1 construct: extracellular domain without signal peptide, C-terminal 6 His tag, made in HEK293 cells; also called recombinant human LAMP1; human LAMP1 (29-382)
T1 sequence: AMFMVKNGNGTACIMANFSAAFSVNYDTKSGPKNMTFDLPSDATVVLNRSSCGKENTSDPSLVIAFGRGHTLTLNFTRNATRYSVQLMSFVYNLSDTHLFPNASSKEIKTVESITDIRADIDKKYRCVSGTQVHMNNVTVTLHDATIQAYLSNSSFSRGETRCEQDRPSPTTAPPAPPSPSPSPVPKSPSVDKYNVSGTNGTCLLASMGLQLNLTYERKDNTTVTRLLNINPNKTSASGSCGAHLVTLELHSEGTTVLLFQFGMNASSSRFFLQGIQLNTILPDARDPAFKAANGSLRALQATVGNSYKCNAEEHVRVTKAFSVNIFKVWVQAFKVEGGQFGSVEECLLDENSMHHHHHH

T2: cLAMP1::histag (cynomolgus monkey, UniProt P11279 29-380 (human entry))
T2 construct: extracellular domain with C-terminal tag that includes 6 His; also called cynomolgus LAMP1 (27-380); cynomolgus monkey LAMP1 protein
T2 chain: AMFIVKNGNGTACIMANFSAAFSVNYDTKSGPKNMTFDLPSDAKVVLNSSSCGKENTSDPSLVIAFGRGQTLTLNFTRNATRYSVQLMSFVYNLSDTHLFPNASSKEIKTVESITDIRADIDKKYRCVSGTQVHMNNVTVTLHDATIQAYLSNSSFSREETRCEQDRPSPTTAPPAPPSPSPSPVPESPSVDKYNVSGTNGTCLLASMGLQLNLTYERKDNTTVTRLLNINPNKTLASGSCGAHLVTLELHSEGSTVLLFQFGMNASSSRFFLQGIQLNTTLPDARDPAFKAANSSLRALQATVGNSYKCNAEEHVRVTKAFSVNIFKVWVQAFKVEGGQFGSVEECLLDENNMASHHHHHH

T3: human LAMP1 at the cell surface (human, UniProt P11279 29-417)
T3 construct: native on tumour cells (PDX, Colo205, SW480, LS174T) or from the cloned CDS NM_005561.3 in HEK293 and HCT116; signal peptide 1-28 left out; also called huLAMP1; full length human LAMP1
T3 sequence: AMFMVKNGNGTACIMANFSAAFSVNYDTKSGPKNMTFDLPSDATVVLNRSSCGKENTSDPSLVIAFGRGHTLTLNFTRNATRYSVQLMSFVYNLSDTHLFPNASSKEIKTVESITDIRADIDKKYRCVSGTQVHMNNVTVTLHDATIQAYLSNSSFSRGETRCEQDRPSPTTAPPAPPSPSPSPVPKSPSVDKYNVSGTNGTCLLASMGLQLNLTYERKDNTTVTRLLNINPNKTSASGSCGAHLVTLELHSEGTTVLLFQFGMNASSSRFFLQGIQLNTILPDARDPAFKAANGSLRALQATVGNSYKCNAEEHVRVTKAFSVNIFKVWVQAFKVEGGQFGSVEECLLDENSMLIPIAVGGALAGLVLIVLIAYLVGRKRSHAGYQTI

T4: LAMP1_mL1_hL234_ΔGYQTI (mouse; human)
T4 construct: on cells; also called pXL5668
T4 chain: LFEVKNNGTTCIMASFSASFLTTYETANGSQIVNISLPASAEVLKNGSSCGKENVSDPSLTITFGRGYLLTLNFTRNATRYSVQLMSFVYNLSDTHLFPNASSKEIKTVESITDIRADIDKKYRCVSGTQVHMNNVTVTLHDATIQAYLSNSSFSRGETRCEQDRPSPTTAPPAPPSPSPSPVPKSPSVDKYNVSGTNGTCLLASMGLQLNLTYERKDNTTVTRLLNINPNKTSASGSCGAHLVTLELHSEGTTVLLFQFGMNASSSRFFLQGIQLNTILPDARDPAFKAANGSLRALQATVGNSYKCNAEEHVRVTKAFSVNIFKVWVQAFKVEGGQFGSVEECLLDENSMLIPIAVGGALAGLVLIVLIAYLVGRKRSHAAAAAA

T5: LAMP1_mL1_hL2_mL34_ΔGYQTI (mouse; human, UniProt P11438 25-369)
T5 construct: on cells; also called pXL5988; not shown: transmembrane domain and cytoplasmic tail with GYQTI replaced by 5 Ala
T5 chain: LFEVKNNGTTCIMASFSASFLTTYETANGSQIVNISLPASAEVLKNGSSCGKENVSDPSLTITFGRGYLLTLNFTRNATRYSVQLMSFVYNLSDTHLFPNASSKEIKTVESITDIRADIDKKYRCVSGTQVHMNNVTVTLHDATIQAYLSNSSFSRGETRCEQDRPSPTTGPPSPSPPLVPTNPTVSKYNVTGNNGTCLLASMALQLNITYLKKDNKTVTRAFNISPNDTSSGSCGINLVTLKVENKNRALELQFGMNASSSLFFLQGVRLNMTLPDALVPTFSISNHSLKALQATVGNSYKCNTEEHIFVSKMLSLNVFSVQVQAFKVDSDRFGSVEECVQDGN


Legend:
LAMP1::histag [1] = biological target: T1, LAMP1::histag; assay: ELISA
cLAMP1::histag [2] = biological target: T2, cLAMP1::histag; assay: ELISA
[3] = biological target: T6, recombinant human LAMP2 with a C-terminal 10 His-tag (human, UniProt P13473 29-375); assay: ELISA with soluble LAMP1 or LAMP2
T6 construct: bought; also called soluble LAMP2 protein (R&D Systems 6228-LM)

LAMP1::histag [4] = biological target: T1, LAMP1::histag; assay: ELISA on recombinant human LAMP1
cLAMP1::histag [5] = biological target: T2, cLAMP1::histag; assay: ELISA on recombinant cynomolgus LAMP1
[6] = biological target: T6, recombinant human LAMP2 with a …; assay: ELISA on coated soluble human LAMP2
[7] = biological target: T3, human LAMP1 at the cell surface; assay: flow cytometry, dissociated CR-IGR-034P colon PDX cells
Description: Advanced human primary colon tumor CR-IGR-034P was obtained from Patient-derived xenograft in mice. Tumor CR-IGR-034P was enzymatically dissociated using collagenase Type IV (Invitrogen; #17104-019) and deoxyribonuclease I (Invitrogen; #18047-019) for 1 h at 4° C. Cell viability was estimated by Viacount application using Guava® easyCyte™ 8HT Flow Cytometry System. […] 100 μL/well of goat anti-mouse IgG conjugated with Alexa647 (Invitrogen; # A2135) or goat anti-human IgG conjugated with Alexa488 (Invitrogen; # A11013) was added for 45 min at 4° C. and washed three times with PBS 1% BSA. The antibody binding was evaluated after centrifugation and resuspension of cells by adding 200 μl/well PBS 1% BSA and read using Guava® easyCyte™ 8HT Flow Cytometry System. EC50 values were estimated using BIOST@T-SPEED software.

[8] = biological target: T3, human LAMP1 at the cell surface; assay: cell-based or functional assay
LAMP1_mL1_hL234_ΔGYQTI = biological target: T4, LAMP1_mL1_hL234_ΔGYQTI; assay: flow cytometry, transfected 293-F cells
[9] = biological target: T5, LAMP1_mL1_hL2_mL34_ΔGYQTI; assay: flow cytometry, transfected 293-F cells

T6 sequence (P13473 other isoform, or with tags, fused parts or gaps): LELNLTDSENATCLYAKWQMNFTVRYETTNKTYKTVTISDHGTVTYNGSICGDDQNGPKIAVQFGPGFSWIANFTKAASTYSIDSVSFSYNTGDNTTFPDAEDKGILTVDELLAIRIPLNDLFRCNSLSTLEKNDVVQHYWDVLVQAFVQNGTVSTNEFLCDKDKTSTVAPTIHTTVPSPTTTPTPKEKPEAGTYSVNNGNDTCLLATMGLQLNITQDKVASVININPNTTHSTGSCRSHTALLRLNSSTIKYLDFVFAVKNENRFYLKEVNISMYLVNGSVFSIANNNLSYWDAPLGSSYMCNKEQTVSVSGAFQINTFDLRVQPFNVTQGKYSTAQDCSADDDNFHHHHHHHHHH

| EC50 (LAMP1::histag [1]) [nM] | EC50 (cLAMP1::histag [2]) [nM] | fold difference of EC50 (LAMP1 versus LAMP2) [3] [fold] | EC50 (LAMP1::histag [4]) [nM] | EC50 (cLAMP1::histag [5]) [nM] | binding result [6] | EC50 [7] [nM] | ADCC EC50, NK batch 6712562616 [8] [nM] | ADCC EC50, NK batch 67125626389 [8] [nM] | ADCC EC50, NK batch 67125903091 [8] [nM] | binding result (LAMP1_mL1_hL234_ΔGYQTI) | binding result [9] | Binder |
| --- | --- | --- | --- | --- | --- | --- | --- | --- | --- | --- | --- | --- |
| 0.2 to 0.4 | 0.2 to 0.4 | > 100 | 0.39 | 0.22 | no binding (tested: 10 µg/mL) | 1.3 |  |  |  |  |  | MAb4 (antibody, mouse IgG1, V domains shown, also called antibody from hybridoma 88LAMP1-2) VH: QVQLQQSGAELVRPGTSVKVSCKASGYAFTNYLIEWVKQRPGQGLEWIGVINPGSGGTNYNEKFKGKATLTADKSSSTAYMQLSSLTSDDSAVYFCARYRSYDWYFDVWGAGTTVTVSS VL: DIQMTQSPASLSASVGETVTITCRVSGNIHNYLAWYQQKQGKSPQLLVYNAKTLADGVPSRFSGSGSGTQYSLKINSLQPEDFGSYYCQHFWSNPYTFGGGTKLEIK |
|  |  |  |  |  |  |  | 2 | 0.1 | 0.5 | no binding | no binding | chMAb2 (antibody, human IgG1, kappa, chimeric, human IgG1, Ckappa) heavy: not shown light: NIVLTQSPVSLAVSLGQRATISCRASESVDINGNTFMHWYQQKPGQSPKLVIYAASNIESGVPARFSGSGSSTDFTFTIDPVEADDVATYYCQQNIEDPWTFGGGTKVEIKRTVAAPSVFIFPPSDEQLKSGTASVVCLLNNFYPREAKVQWKVDNALQSGNSQESVTEQDSKDSTYSLSSTLTLSKADYEKHKVYACEVTHQGLSSPVTKSFNRGEC |
